# According to the RNAGym collection of RNA variant scans (doi:10.1073/pnas.2313332121):
# This sample holds only a part of the variants without activity.
# B1: TPR 5TU (parent)
# chain: GGAUCUUCUCGAUCUAACAAAAAAGACAAAUCUGCCACAAAGCUUGAGAGCAUCUUCGGAUGCAGAGGCGGCAGCCUUCGGUGGCGCGAUAGCGCCAACGUUCUCAACUAUGACACGCAAAACGCGUGCUCCGUUGAAUGGAGUUUAUCAUG
# Variants of: B1
# Assay: polymerase ribozyme fitness, log enrichment relative to wild type (log ratio); higher = more active; in vitro selection for triplet polymerase activity
# How it was run: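 Genotype fitness is the logarithm of its enrichment divided by wild-type enrichment, using inverse-variance-weighted averages of replicates. That logarithm is base 2. Enrichment was measured by Illumina sequencing of input and output libraries from one triplicate in vitro selection round, with frozen incubation at −7 °C, on PCR-built, transcribed mutant libraries of each subunit of a heterodimeric triplet polymerase ribozyme, retaining genotypes with ≥10 input reads and ≥1 read per output.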
row,Variant,polymerase ribozyme fitness (log ratio)
1,A47C G50U G58U A91G A97U U102A,≤ -4.2
2,A19U U44G G50C A73G C76A G140A,≤ -4.2
3,C5G C96A G117A,-0.406
4,C131G G133C G136U G141U,-3.43
5,A28G G34A G83C C118G,≤ -4.2
6,U44G C54G C76G C85A,≤ -4.2
7,G81A G86A,-1.56
8,C54A C69A G84A G88A,≤ -4.2
9,C36U G59C C131U,-0.515
10,C14U A19U C87U C99A,-3.91
11,G48C C87G G88C A91G A119U U134G,≤ -4.2
12,U61G G67U U90A A120G,≤ -4.2
13,A21U A29U U61A,≤ -4.2
14,C8A G84A,-3.28
15,C54U C85A,-2.3
16,A16U A17G G59C U77G G94U,-3.85
17,C36U G141U A142C,≤ -4.2
18,G42A C87G,≤ -4.2
19,U127G G136A,-2.89
20,U9C A21U G48A A91U C99U,≤ -4.2
21,U53G A113C G133A,≤ -4.2

row,Variant,polymerase ribozyme fitness (log ratio)
1,A37G C38A C43U C54G G80U U104G,≤ -4.2
2,G86U A137G,-3.03
3,C14G G88C C125G,-4.08
4,A26U C93U A122U,-2.76
5,A40U C57U C76A,-0.244
6,A29G G34A A49U G59U C76U C108A A119G,≤ -4.2
7,C75G G81A G92U C125G,≤ -4.2
8,U4A A21C G80A,-0.338
9,C10U A107G,≤ -4.2
10,U31C U53G,-0.735
11,C18U C87G,≤ -4.2
12,C51U U82A C95U,-1.29
13,C5A U61A U102G,≤ -4.2
14,A26U A49G C93U G124C U135G A138G,≤ -4.2
15,A52C G83C C87U A122G,≤ -4.2
16,A22C G92C,-1.73
17,G50C C87G C114A A115G,≤ -4.2
18,G34U C76U A119U,-3.19
19,C5G U53A G94A C125A U139C A142C,≤ -4.2
20,C85U U101A,-0.791
21,U9G C96U,-3.76

row,Variant,polymerase ribozyme fitness (log ratio)
1,A28G U44A G83C A147G,≤ -4.2
2,C36U G58A C87A C131U G143A,≤ -4.2
3,C18U U56A G83A U102A U144A,-3.72
4,U61A G65C C85A C96G U151C,≤ -4.2
5,C51U A60G C85A,-3.39
6,U56G C93U A110U,-3.71
7,U55A G58A C85A C131U,0.931
8,U6C G11C A16C G58C A142C,-3.7
9,C32A U82C,≤ -4.2
10,A60G G83A G86A A97C C125G C131G G136A G152U,≤ -4.2
11,C93U C95G,-2.26
12,A40C G68U G86A C103G,≤ -4.2
13,C38A U148A,-4.04
14,C5G G65A A66G A137C G141C,≤ -4.2
15,A52G U90A A142G,≤ -4.2
16,C32G U56A G94A C108U G124C U145A,≤ -4.2
17,A12U C38U G83U,-0.788
18,A40G G81A G88C,≤ -4.2
19,G46U C69G,-0.758
20,U7G A60U G83C C85A C105G A137G,≤ -4.2
21,C69U A73G G83C,-3.38

row,Variant,polymerase ribozyme fitness (log ratio)
1,A22U C99A,0.261
2,A39C G59C G86A,-3.73
3,G88A A98U A106C,≤ -4.2
4,C27G C54A C93A A115U,≤ -4.2
5,U56A C118U C123G U144C,-0.722
6,C85U G141U,1.07
7,G58U G86A U130C,0.803
8,G50A G65A C85U,-3.49
9,A60G U78A A106G C118U,≤ -4.2
10,G83U G128U,-3.22
11,A41C U55A G94A G112U U134A,≤ -4.2
12,A41C C87U A120C,-1.53
13,U6A A12U U53A C114U,-3.59
14,U33G C54A G86A C87G A119U A122U G143C A147C,≤ -4.2
15,U56A C79U C118G C132A,-4.05
16,A17C C57U U82C,-0.0541
17,C85G G94U,-0.835
18,U55G G86A U134A,-3.62
19,C14U C87U,-2.18
20,U44A U82A,-4.18
